Laboratory results as given in US20240240209A1, “SYNTHESIS OF ENANTIOPURE CIS-A-IRONE FROM A RENEWABLE CARBON SOURCE” (Agency for Science, Technology and Research, priority 2021, published 2024).

Assays:
[1] = Cell lysate reaction of pMT enzymes with psi-ionone, irones quantified by HS-SPME-GCMS; type: biochemical; conditions: for fold change in cis-α-irone produced: AUC vs non-mutated (=1)
In short: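 pMT1 site-saturation mutants were expressed in E. coli BL21(DE3) and lysed, and lysates were incubated 2 days at 28 °C with 0.2 mM SAM and 10 mg/L psi-ionone (plus caryophyllene) in 50 mM Tris pH 7, 10 mM MgCl2. Cis-α-irone was measured by HS-SPME-GCMS peak area and given as fold change over non-mutated enzyme.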

[2] = In vivo cis-α-irone production from glucose/glycerol in strain 2O31 cultures; type: cell-based, Escherichia coli; conditions: pMT plasmid transformed into strain 2O31; 2 days
Excerpt: The advantage of in vivo biotransformation is that microbial cells can regenerate expensive co-factors rendering the scale-up bioprocess more cost-effective. […] Thus, pMT was incorporated into our psi-ionone producing microbe^7,8, to synthesize cis-α-irone from cheap renewable carbon sources (glucose/glycerol) (FIG. 4 and FIG. 19). To achieve high productivity, the psi-ionone production was first optimized by multidimensional heuristic process (MHP)^15, and strain 2O31 was identified to be the highest producer for psi-ionone (FIG. 19b). 2O31 was used as the base strain to probe cis-α-irone production in vivo (Table 5). Moreover, to improve the plasmid stability, auxotrophic strain was used with chemically defined media^1. The plasmid carrying pMT1, pMT7 or pMT10 was transformed into the strain 2O31, and produced less than 0.01, about 2 and about 3 mg/L cis-α-irone respectively in 2 days (FIG. 19d). To further optimize irone production with pMT10, three different culture conditions were tested: no methionine or dodecane added (control); 10 mM methionine added; 10 mM methionine and 20% dodecane added. In the control reaction, approximately 4.8 mg/L or 0.85 mg/L/OD cis-α-irone was produced after 3-day incubation (2O31-pMT10, FIGS. 4c and 4e). […] Lastly, when both methionine and dodecane were added, psi-ionone was accumulated in the organic layer and only ˜0.3 mg/L or ˜0.05 mg/L/OD cis-α-irone was produced (2O31-pMT10, FIGS. 4c, d and e). […] The limited methylation efficiency might be due to insufficient cofactor or SAH inhibition. […] In fact, the total amount of psi-ionone and cis-α-irone decreased (FIG. 4c, and d). As SAM biosynthesis is regulated by metJ in E. coli^16,17, the aforementioned six reactions were subsequently examined under metJ deleted genetic background (2O31, ΔmetJ). An increase in cis-α-irone titer to ˜5.7 mg/L was produced by 2O31 ΔmetJ-pMT10 strain with 10 mM methionine supplementation (FIG. 4c). An increase in specific cis-α-irone titer to ˜1.2 mg/L/OD was produced by 2O31 ΔmetJ-pMT10r strain without methionine supplementation (FIG. 4d). […]

B1: pMT1: wild-type bifunctional methyltransferase and cyclase TleD from Streptomyces blastmyceticus (protein, listed as Streptomyces blastmyceticus)
chain: MPQEARTPQQQVTADEVGDWYDKFGEVYHLTLGESVHCGLWFPPDAPVPQDMELVTMSSQAQDRYTDYLIETLDPKAGQHLLDIGCGTGRTALKAARQRGIAVTGVAVSKEQIAAANRLAAGHGLTERLTFEVADAMRLPYEDESFDCAWAIESLCHMDRAKALGEAWRVLKPGGDLLVLESVVTEELTEPETALFETLYAANVPPRLGEFFDIVSGAGFHTLSLKDLSANLAMTMNVFALGVYSRRAEFTERFGAEFVDGLLAGLGSAQETLIRKTRFFMATLRKPAV
With B1 the “cis-α-irone content (percentage of cis-α-irone in the irone mixture)” value ([1]; cell extracts with psi-ionone) was 21%, the “trans-α-irones detected (share of irones)” value ([1]; cell extracts with psi-ionone) was 79% and the “fold change in cis-α-irone produced” value ([1]; pMT1_E153 mutants) was 1.0. The “fold change in cis-α-irone produced” value ([1]; pMT1_M236 mutants) was 1.0, the “fold change in cis-α-irone produced” value ([1]; pMT1_R160 mutants) was 1.0 and the “fold change in cis-α-irone produced” value ([1]; pMT1_S182 mutants) was 1.0. The “fold change in cis-α-irone produced” value ([1]; pMT1_Y200 mutants) was 1.0 and the cis-α-irone produced [2] was “less than 0.01 mg/L”.
